Source: paper PMC5904407

Legend:
[1] = molecular target: Full-length LapA (FL-LapA; residues 1 to 378), minus N-terminal signal sequence (Legionella pneumophila strain 130b); test: crystal structure
[2] = molecular target: Full-length NttD (FL-NttD; residues 1 to 373), minus N-terminal signal sequence (Legionella pneumophila strain 130b); test: SEC

**Q.** For “Full-length LapA (FL-LapA; residues 1 to 378), minus N-terminal signal sequence (enzyme)”, which stoichiometry N [1] is on record?
**A.** The stoichiometry N was 2.

**Q.** Which stoichiometry N [2] does the source give for “Full-length NttD (FL-NttD; residues 1 to 373), minus N-terminal signal sequence (natural protein)” here?
**A.** The stoichiometry N was 2.
